From patent US20020156245A1

biological target: human Ptch (SEQ ID NO:4) (human) (UniProt Q13635); assay: Scatchard analysis of displacement of 125I-Shh from 293 cells expressing Ptch

Substance	Kd [nM]
Ihh (SEQ ID NO:29) (from UniProt P97812 28-202) (ligand)	1
Shh (SEQ ID NO:14), 19 kD amino terminal fragment of murine Shh (from UniProt Q62226 25-198) (ligand)	1
Dhh (SEQ ID NO:13) (from UniProt Q61488 23-198) (ligand)	2.6
